Data reported in patent US20230140797A1 (published 2023).

T1: human FcγRIIa type H (131His) extracellular domain with C-terminal His tag (human, UniProt P12318 34-217)
T1 sequence (looked up): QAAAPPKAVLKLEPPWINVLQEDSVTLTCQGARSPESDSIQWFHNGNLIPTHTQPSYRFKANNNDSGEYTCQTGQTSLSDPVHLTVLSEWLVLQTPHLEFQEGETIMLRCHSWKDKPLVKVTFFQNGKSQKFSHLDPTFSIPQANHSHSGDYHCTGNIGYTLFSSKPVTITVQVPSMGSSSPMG

T2: human FcγRIIb extracellular domain with C-terminal His tag (human, UniProt P31994 43-217)
T2 sequence (looked up): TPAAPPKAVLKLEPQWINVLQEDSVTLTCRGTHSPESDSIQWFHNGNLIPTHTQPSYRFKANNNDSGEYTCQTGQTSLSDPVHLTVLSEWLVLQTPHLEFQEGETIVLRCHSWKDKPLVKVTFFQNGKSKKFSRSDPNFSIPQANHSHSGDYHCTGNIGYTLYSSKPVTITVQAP

T3: human FcγRIIa type R (131Arg) extracellular domain with C-terminal His tag (human, UniProt P12318 34-217)
T3 sequence (looked up): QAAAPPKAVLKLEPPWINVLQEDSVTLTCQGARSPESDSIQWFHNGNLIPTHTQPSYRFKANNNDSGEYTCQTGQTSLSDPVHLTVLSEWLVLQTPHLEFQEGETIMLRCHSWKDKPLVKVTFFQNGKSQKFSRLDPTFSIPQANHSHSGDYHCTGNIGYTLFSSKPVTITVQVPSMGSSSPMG

B1: IL6R-BP087/IL6R-L (antibody, human IgG1, kappa)
heavy: QVQLQESGPGLVKPSETLSLTCAVSGHSISHDHAWSWVRQPPGEGLEWIGFISYSGITNYNPSLQGRVTISRDNSKNTLYLQMNSLRAEDTAVYYCARSLARTTAMDYWGEGTLVTVSSASTKGPSVFPLAPSSKSTSGGTAALGCLVKDYFPEPVTVSWNSGALTSGVHTFPAVLQSSGLYSLSSVVTVPSSSLGTQTYICNVNHKPSNTKVDKKVEPKSCDKTHTCPPCPAPEYLGGDSVFLFPPKPKDTLMISRTPEVTCVVVDVSHEDPEVKFNWYVDGVEVHNAKTKPREEQYNSTYRVVSVLTVLHQDWLNGKEYKCKVSNKALPKPIEKTISKAKGQPREPQVYTLPPSRDELTKNQVSLTCLVKGFYPSDIAVEWESNGQPENNYKTTPPVLDSDGSFFLYSKLTVDKSRWQQGNVFSCSVMHEALHNHYTQESLSLSP
light: not shown
B2: IL6R-BP143/IL6R-L (antibody, human IgG1, kappa)
heavy: QVQLQESGPGLVKPSETLSLTCAVSGHSISHDHAWSWVRQPPGEGLEWIGFISYSGITNYNPSLQGRVTISRDNSKNTLYLQMNSLRAEDTAVYYCARSLARTTAMDYWGEGTLVTVSSASTKGPSVFPLAPSSKSTSGGTAALGCLVKDYFPEPVTVSWNSGALTSGVHTFPAVLQSSGLYSLSSVVTVPSSSLGTQTYICNVNHKPSNTKVDKKVEPKSCDKTHTCPPCPAPEYLGGDSVFLFPPKPKDTLMISRTPEVTCVVVDVSHEDPEVKFNWYVDGVEVHNAKTKPREEQYNSTYRVVSVLTVLHQDWLNGKEYKCKVSNAALPAPIEKTISKAKGQPREPQVYTLPPSRDELTKNQVSLTCLVKGFYPSDIAVEWESNGQPENNYKTTPPVLDSDGSFFLYSKLTVDKSRWQQGNVFSCSVMHEALHNHYTQESLSLSP
light: not shown
B3: IL6R-BP150/IL6R-L (antibody, human IgG1, kappa)
heavy: QVQLQESGPGLVKPSETLSLTCAVSGHSISHDHAWSWVRQPPGEGLEWIGFISYSGITNYNPSLQGRVTISRDNSKNTLYLQMNSLRAEDTAVYYCARSLARTTAMDYWGEGTLVTVSSASTKGPSVFPLAPSSKSTSGGTAALGCLVKDYFPEPVTVSWNSGALTSGVHTFPAVLQSSGLYSLSSVVTVPSSSLGTQTYICNVNHKPSNTKVDKKVEPKSCDKTHTCPPCPAPEYLGDDSVFLFPPKPKDTLMISRTPEVTCVVVDVSHEDPEVKFNWYVDGVEVHNAKTKPREEQYNSTYRVVSVLTVLHQDWLNGKEYKCKVSNAALPRPIEKTISKAKGQPREPQVYTLPPSRDELTKNQVSLTCLVKGFYPSDIAVEWESNGQPENNYKTTPPVLDSDGSFFLYSKLTVDKSRWQQGNVFSCSVMHEALHNHYTQESLSLSP
light: not shown
B4: IL6R-BP440/IL6R-L (antibody, human IgG1, kappa)
heavy: QVQLQESGPGLVKPSETLSLTCAVSGHSISHDHAWSWVRQPPGEGLEWIGFISYSGITNYNPSLQGRVTISRDNSKNTLYLQMNSLRAEDTAVYYCARSLARTTAMDYWGEGTLVTVSSASTKGPSVFPLAPSSKSTSGGTAALGCLVKDYFPEPVTVSWNSGALTSGVHTFPAVLQSSGLYSLSSVVTVPSSSLGTQTYICNVNHKPSNTKVDKKVEPKSCDKTHTCPPCPAPDLLGDDSVFLFPPKPKDTLMISRTPEVTCVVIDVSEEDGEVKFNWYVDGVEVHNAKTKPREEQYNSTYRVVSVLTVLHQDWLNGKEYKCKVSNKALPRPIEKTISKAKGQPREPQVYTLPPSRDELTKNQVSLTCLVKGFYPSDIAVEWESNGQPENNYKTTPPVLDSDGSFFLYSKLTVDKSRWQQGNVFSCSVMHEALHNHYTQESLSLSP
light: not shown
B5: IL6R-BP493/IL6R-L (antibody, human IgG1, kappa)
heavy: QVQLQESGPGLVKPSETLSLTCAVSGHSISHDHAWSWVRQPPGEGLEWIGFISYSGITNYNPSLQGRVTISRDNSKNTLYLQMNSLRAEDTAVYYCARSLARTTAMDYWGEGTLVTVSSASTKGPSVFPLAPSSKSTSGGTAALGCLVKDYFPEPVTVSWNSGALTSGVHTFPAVLQSSGLYSLSSVVTVPSSSLGTQTYICNVNHKPSNTKVDKKVEPKSCDKTHTCPPCPAPELLGGDSVFLFPPKPKDTLMISRTPEVTCVVIDVAEEDGEVKFNWYVDGVEVHNAKTKPREEQDNSTYRVVSVLTVLHQDWLNGKEYKCKVSNKALPAPIEKTISKAKGQPREPQVYTLPPSRDELTKNQVSLTCLVKGFYPSDIAVEWESNGQPENNYKTTPPVLDSDGSFFLYSKLTVDKSRWQQGNVFSCSVMHEALHNHYTQESLSLSP
light: not shown
B6: IL6R-BP481/IL6R-L (antibody, human IgG1, kappa)
heavy: QVQLQESGPGLVKPSETLSLTCAVSGHSISHDHAWSWVRQPPGEGLEWIGFISYSGITNYNPSLQGRVTISRDNSKNTLYLQMNSLRAEDTAVYYCARSLARTTAMDYWGEGTLVTVSSASTKGPSVFPLAPSSKSTSGGTAALGCLVKDYFPEPVTVSWNSGALTSGVHTFPAVLQSSGLYSLSSVVTVPSSSLGTQTYICNVNHKPSNTKVDKKVEPKSCDKTHTCPPCPAPDLLGDDSVFLFPPKPKDTLMISRTPEVTCVVIDVAEEDGEVKFNWYVDGVEVHNAKTKPREEQYNSTYRVVSVLTVLHQDWLNGKEYKCKVSNKALPAPIEKTISKAKGQPREPQVYTLPPSRDELTKNQVSLTCLVKGFYPSDIAVEWESNGQPENNYKTTPPVLDSDGSFFLYSKLTVDKSRWQQGNVFSCSVMHEALHNHYTQESLSLSP
light: not shown
B7: IL6R-BP441/IL6R-L (antibody, human IgG1, kappa)
heavy: QVQLQESGPGLVKPSETLSLTCAVSGHSISHDHAWSWVRQPPGEGLEWIGFISYSGITNYNPSLQGRVTISRDNSKNTLYLQMNSLRAEDTAVYYCARSLARTTAMDYWGEGTLVTVSSASTKGPSVFPLAPSSKSTSGGTAALGCLVKDYFPEPVTVSWNSGALTSGVHTFPAVLQSSGLYSLSSVVTVPSSSLGTQTYICNVNHKPSNTKVDKKVEPKSCDKTHTCPPCPAPDLLGDDSVFLFPPKPKDTLMISRTPEVTCVVVDLSEEDGEVKFNWYVDGVEVHNAKTKPREEQYNSTYRVVSVLTVLHQDWLNGKEYKCKVSNKALPRPIEKTISKAKGQPREPQVYTLPPSRDELTKNQVSLTCLVKGFYPSDIAVEWESNGQPENNYKTTPPVLDSDGSFFLYSKLTVDKSRWQQGNVFSCSVMHEALHNHYTQESLSLSP
light: not shown
B8: IL6R-BP479/IL6R-L (antibody, human IgG1, kappa)
heavy: QVQLQESGPGLVKPSETLSLTCAVSGHSISHDHAWSWVRQPPGEGLEWIGFISYSGITNYNPSLQGRVTISRDNSKNTLYLQMNSLRAEDTAVYYCARSLARTTAMDYWGEGTLVTVSSASTKGPSVFPLAPSSKSTSGGTAALGCLVKDYFPEPVTVSWNSGALTSGVHTFPAVLQSSGLYSLSSVVTVPSSSLGTQTYICNVNHKPSNTKVDKKVEPKSCDKTHTCPPCPAPDLLGDDSVFLFPPKPKDTLMISRTPEVTCVVIDLAEEDGEVKFNWYVDGVEVHNAKTKPREEQYNSTYRVVSVLTVLHQDWLNGKEYKCKVSNKALPAPIEKTISKAKGQPREPQVYTLPPSRDELTKNQVSLTCLVKGFYPSDIAVEWESNGQPENNYKTTPPVLDSDGSFFLYSKLTVDKSRWQQGNVFSCSVMHEALHNHYTQESLSLSP
light: not shown
B9: IL6R-BP425/IL6R-L (antibody, human IgG1, kappa)
heavy: QVQLQESGPGLVKPSETLSLTCAVSGHSISHDHAWSWVRQPPGEGLEWIGFISYSGITNYNPSLQGRVTISRDNSKNTLYLQMNSLRAEDTAVYYCARSLARTTAMDYWGEGTLVTVSSASTKGPSVFPLAPSSKSTSGGTAALGCLVKDYFPEPVTVSWNSGALTSGVHTFPAVLQSSGLYSLSSVVTVPSSSLGTQTYICNVNHKPSNTKVDKKVEPKSCDKTHTCPPCPAPDLLGDDSVFLFPPKPKDTLMISRTPEVTCVVVDLAEEDGEVKFNWYVDGVEVHNAKTKPREEQYNSTYRVVSVLTVLHQDWLNGKEYKCKVSNKALPRPIEKTISKAKGQPREPQVYTLPPSRDELTKNQVSLTCLVKGFYPSDIAVEWESNGQPENNYKTTPPVLDSDGSFFLYSKLTVDKSRWQQGNVFSCSVMHEALHNHYTQESLSLSP
light: not shown
B10: IL6R-BP436/IL6R-L (antibody, human IgG1, kappa)
heavy: QVQLQESGPGLVKPSETLSLTCAVSGHSISHDHAWSWVRQPPGEGLEWIGFISYSGITNYNPSLQGRVTISRDNSKNTLYLQMNSLRAEDTAVYYCARSLARTTAMDYWGEGTLVTVSSASTKGPSVFPLAPSSKSTSGGTAALGCLVKDYFPEPVTVSWNSGALTSGVHTFPAVLQSSGLYSLSSVVTVPSSSLGTQTYICNVNHKPSNTKVDKKVEPKSCDKTHTCPPCPAPDLLGDDSVFLFPPKPKDTLMISRTPEVTCVVVDVAEEDGEVKFNWYVDGVEVHNAKTKPREEQDNSTYRVVSVLTVLHQDWLNGKEYKCKVSNKALPRPTEKTISKAKGQPREPQVYTLPPSRDELTKNQVSLTCLVKGFYPSDIAVEWESNGQPENNYKTTPPVLDSDGSFFLYSKLTVDKSRWQQGNVFSCSVMHEALHNHYTQESLSLSP
light: not shown
B11: IL6R-BP431/IL6R-L (antibody, human IgG1, kappa)
heavy: QVQLQESGPGLVKPSETLSLTCAVSGHSISHDHAWSWVRQPPGEGLEWIGFISYSGITNYNPSLQGRVTISRDNSKNTLYLQMNSLRAEDTAVYYCARSLARTTAMDYWGEGTLVTVSSASTKGPSVFPLAPSSKSTSGGTAALGCLVKDYFPEPVTVSWNSGALTSGVHTFPAVLQSSGLYSLSSVVTVPSSSLGTQTYICNVNHKPSNTKVDKKVEPKSCDKTHTCPPCPAPDLLGDDSVFLFPPKPKDTLMISRTPEVTCVVVDVGEDDGEVKFNWYVDGVEVHNAKTKPREEQYNSTYRVVSVLTVLHQDWLNGKEYKCKVSNKALPRPIEKTISKAKGQPREPQVYTLPPSRDELTKNQVSLTCLVKGFYPSDIAVEWESNGQPENNYKTTPPVLDSDGSFFLYSKLTVDKSRWQQGNVFSCSVMHEALHNHYTQESLSLSP
light: not shown

Molecular target: human FcγRIa extracellular domain with C-terminal His tag (human, UniProt P12314 16-292)
Sequence (P12314 16-292): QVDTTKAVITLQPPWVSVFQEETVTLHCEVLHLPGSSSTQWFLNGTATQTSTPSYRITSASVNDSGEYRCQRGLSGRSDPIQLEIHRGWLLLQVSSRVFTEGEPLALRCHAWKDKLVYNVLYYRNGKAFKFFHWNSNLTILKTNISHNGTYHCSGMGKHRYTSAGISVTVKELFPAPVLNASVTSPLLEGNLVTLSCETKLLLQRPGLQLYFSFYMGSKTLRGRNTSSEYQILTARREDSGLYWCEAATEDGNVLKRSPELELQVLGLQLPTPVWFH
Experiment: SPR

In order of falling Kd:
1. B1  3.8 µM
2. B3  0.3 µM
3. B2  0.018 µM

Molecular target: T1, human FcγRIIa type H (131His) …
Experiment: SPR

In order of falling Kd:
1. B5  13 µM
2. B6  8.3 µM
3. B4  1.5 µM
4. B7  0.003 µM

Molecular target: T2, human FcγRIIb extracellular domain with …
Experiment: SPR

In order of rising Kd:
1. B9  0.0001 µM
2. B11  0.0012 µM
3. B10  0.051 µM
4. B8  5.6 µM

Molecular target: T3, human FcγRIIa type R (131Arg) …
Experiment: SPR

B5 showed a Kd of 0.011 µM.
